Assay: soluble on expression in E. coli; label from the status in PepcDB or PDB records
In the case of “MSLAHGIPSQGKVTITVDEYSSNPTQAFTHYNINQSRFQPPHVHMVDPIPYDTPKPAGHTRFVCISDTHSRTDGIQMPYGDILLHTGDFTELGLPSEVKKFNDWLGNLPYEYKIVIAGNHELTFDKEFMADLVKQDYYRFPSVSKLKPEDFDNVQSLLTNSIYLQDSEVTVKGFRIYGAPWTPWFNGWGFNLPRGQSLLDKWNLIPEGIDILMTHGPPLGFRDWVPKELQRVGCVELLNTVQRRVRPKLHVFGGIHEGYGIMTDGYTTYINASTCTVSFQPTNPPIIFDLPNPQGSEGHHHHHH”, the “soluble on expression in E. coli” value is reported as “soluble”. In the case of “MNDTSFENCIKCTVCTTACPVSRVNPGYPGPKQAGPDGERLRLKDGALYDEALKYCINCKRCEVACPSDVKIGDIIQRARAKYDTTRPSLRNFVLSHTDLMGSVSTPFAPIVNTATSLKPVRQLLDAALKIDHRRTLPKYSFGTFRRWYRSIAAQQAQYKDQVAFFHGCFVNYNHPQLGKDLIKVLNAMGTGVQLLSKEKCCGVPLIANGFTDKARKQAITNVESIREAVGVKGIPVIATSSTCTFALRDEYPEVLNVDNKGLRDHIELATRWLWRKLDEGKTLPLKPLPLKVVYHTPCHMEKMGWTLYTLELLRNIPGLELTVLDSQCCGIAGTYGFKKENYPTSQAIGAPLFRQIEESGADLVVTDCETCKWQIEMSTSLRCEHPITLLAQALA”, the “soluble on expression in E. coli” value is reported as “not soluble”. In the case of “MSMSDIGGKDRLNDEKRVTVRLSRSMVEEMEDLVNRDEYESVSDLVRKAVSALLESRGVNSDFLPVQIMVPKNLIEKLGKDSTKPVNLSLDEFSSLILDRINGLTVRETIKKIVHEENIK”, the “soluble on expression in E. coli” value is reported as “not soluble”. In the case of “GPGSMIMKASGAAVLHAVREKMQEATVAALIVTSSDAHNSEYVATHLQSRAFISHFQGSAGTALITMEKALLWTDGRYWLAAEEEKYPEFDLMKQGQPEVPSLEEWIAANLGSKAVVGMSPYVATVAEWERLSKKINLRPVANIVQDMMPPEKSVRKMYVRPAEFCGATCQERRAAILAELEKKDCDMIILSALDEIAWFTNLRGGDVDYNPVFYAYAVIDKHYENVRLYVNLDKVTDAVRQACEDHIDFYPYEQFEADLKQLPRGRKALVDERQTSEAVFRILKDVGTVTVRVVCGPAQKLKAIKNEVELKGFRDCHVRDGAALTRYLAWLHDQVANKGVTDLNEYDAATKLEEFRAQGEHFVQLSFGSISSIGPNGAMCHYSPAETGSAAIRRDQLYLIDSGAHYWDGTTDVTRTICFTAPSDEQREAYTLVLKGHIALNSIIFPKGTSGVRLDTLARMALWGVGLDYAHGTGHGVGSFLNVHEGPHGISTRPVATGANMELHSIVSNEPGYYKDGHYGIRIENLEEVVECRTKYSATGFYTMSHLTMAPLCRDLIDVSLLTETERAWVDRYHAKVVASIMPHLQQAGDQNAVEYLKYHTRPLFAVNEAYTLLSPDGKGAK”, the “soluble on expression in E. coli” value is reported as “not soluble”. With “MARKNLIGISESPLAPEDGERPAVGRPIAGLAPAQRSTGLVGGITRSLSNITQKVERAEELERQLADGHAIVELDPELIDSSFIIDRLGVAPDVQAMLVQQIRDHGQQVPILVRPHPAESGRYQVAYGHRRLAALREIGIKVKAVIRNLNDEQLVISQGQENNARTDLSFIERALFATRLEDRGFSRDTIMSALGVDKAALSKMIAVVRRLPLDIIEAIGAAPGFGRRRWMELADLIDRDDRRPKALHFIETAAFKALESDQRFEKLFALLSLARKPSKAETWIAPDRSRPVRIRETDAETTLAFSKKAAPGFAEFVRQRLEALYLEYQRETGD” the “soluble on expression in E. coli” value was “not soluble”. In the case of “MSLGQKVRGNLIIIGGAEDKVGKKTILKYVADIVREKKGSLVILTTATQKPQEVGNNYRQVFETLGLMDIDVLNINSRDEADLDENAERIRSSGGIFFTGGDQLRITSILGGTKVYKALHEVYSKGVVIVGTSAGASVMSNTMIVEGKDNEPARKCTMKMAPGLGFLEEAIIDQHFDQRGRIGRLLCGVAENPFMLGIGIDEDTAIRVYPDAHFEVLGSNAVTVIDGSTIKSTNVSELNPDEILAISGVTLHVLPCGYGFDMKKKRSEGHHHHHH”, the “soluble on expression in E. coli” value is reported as “soluble”. For “MSLSEDLRFFEFFAGGGMARAGLGNQWQCLFANDMDRIKASTYIQNWGKDHFDSRDIREVNSEDLERNGDLAWASFPCQDLSVAGNGLGIGSSSAKDFTRSGALWPFLDLIDTLRQEERQPPLLVLENVVGLLTLEGGRDFAAICERLGEIGYRYGAVIIDAKHFLPQSRPRVFIIAVQRNIDIPCKLSRGMATANWHTPTLLRAYKSLTPILHADWVWWELGDAPILQENALESFIQREGVLWNTPEETKRIISMMAPAHLARLENAKCAGGVAVGSLYLRMRREGGINKQRAEITFSPLLGCLRTPRGGASRPRIIVVESGHVRTRLLTICEAARLMGLANTYILPEIYHHAFKVIGDGVAVPAVRFLAERLLEPLAIAAEGHHHHHH”, the “soluble on expression in E. coli” value was “not soluble”. For “MSLRVKTMVFTPFISMVGVTGSMGPFFCEFTLNGDLLPINYPATYTHELAHLLGISSEAEANFYAYQVCTRSQIKGIRFSGYFSILNHVLGNARRLLSEKEYADIINRIRPEIIELAKKNQEYWMAKYSPLIGDVQNWIYDLYLKGNKIESGRKNYSEVIGLLISYQVWKAKTASDEGHHHHHH”, the “soluble on expression in E. coli” value was “not soluble”. For “MNSDLALLRLLQLASPGLPVGGFTYSQGLEWAVEAGWVRGVDSFAGWQREQVHDTLACLDWPVLARLYHACQAKDAEAFGHWSRFLLANRETAELRLEEQQRGAALARLLDGWQLGQAPAWRASLELTQLGGMAWLAAHWAIPLRQLALGHGFAWLEGAVMAGVKLVPFGQQAAQTLLRDLGADLPAALDQALALGDDQLGGGLPLLAIASSRHETQYTRLFRSLEHHHHHH”, the “soluble on expression in E. coli” value was “soluble”. With “MPAISMFYGIVIYLYFYDDERHKIPHIHAKYQGEDASVSIANGEILAGDIPLSKLRLVQAWIEIHRDALMADWALAVNGQPPFAIEPLRLEHHHHHH” the “soluble on expression in E. coli” value was “not soluble”. For “GSNRAIRTEKIICRDVARGYENVPIPCVNGVDGEPCPEDYKYISENCETSTMNIDRNITHLQHCTCVDDCSSSNCLCGQLSIRCWYDKDGRLLQEFNKIEPPLIFECNQACSCWRNCKNRVVQSGIKVRLQLYRTAKMGWGVRALQTIPQGTFICEYVGELISDAEADVREDDSYLFDLDNKDGEVYCIDARYYGNISRFINHLCDPNIIPVRVFMLHQDLRFPRIAFFSSRDIRTGEELGFDYGDRFWDIKSKYFTCQCGSEKCKHSAEAIALEQSRLARLD”, the “soluble on expression in E. coli” value was “soluble”. With “MGSDKIHHHHHHMRKPRVFIGSSVESLPIADAIAENLEFDAEVTIWRNGTFNLSSNALDDLISKAKSVDFSIFIFSPDDLTIMKSREKYAVRDNVVFELGLFIGAIGKNRCFIVKPRDVDLHFPSDLLGITPTDFDANRSDEDLASSLNYSATQIKRAFKAQGLLELDSVQEKPRIDVNAQLATLTDTDMIALSVLLESVNSDVDGCASWDLYNRFNNYDFSSAQVNLAVIKLTRSGMIEKLNTSDFNGNEYFSYKLTEYGIDVCLSNQNRIETLIAPKKRQSGRDVPQQPPVRS” the “soluble on expression in E. coli” value was “not soluble”. For “MGSDKIHHHHHHMETVNILGTGSAMVTKCYNTCFTLSNGDEHFLVDTGGGNTILTNLEKLHIGIDKIHNVFISHRHNDHITGIIWIIRAVAQRIINGKYDGDLKIYCCKENIEVINTICKLLLEKKFTKYMGNRIVFSEIYDGCRLKVLDWDIEFFDIKSTKQLQFGFTTVLKSGKKLTFLGDEPYRENLYEYANNSDYIFHEAFCLYSEKDIFKPYEKHHATVKDACENADKLSVKNIILYHTEDKNIEKRKELYIGEGSKFFKGNIIVPDDLETIELK”, the “soluble on expression in E. coli” value was “not soluble”. In the case of “MAHHHHHHMSNDPKPTKPDPRVANNDVASDDGSDGKGDVAAPPAFLPTAGRVEVHPLVLLSLVDHYARMNTSAVQKKRVAGLLLGRYVRDSTGMQTLDINNSFAVPFDEDPQDAGVWFFDTNYAQEMFAMHKRVLPKVKVVGWYSSGPTIQPNDMLLHLLVADRFCLNPVYCVVNTDPNNKGVPVRAYTTVQGREGTRSLEFRNIPTHLGAEEAEEIGIEHLLRDLTDSTITTLSTQVQERELSLVHLCKVLQQIEEYLKDVGNAVMPISEDVLEVLQELISLQPEIYARRSSTEMIRHTNDEAIATFLAAIARCIGALHGVIMNRRKLARELQEIKDRRARAAETRLENEKMKIEEAAKEKDTNQA”, the “soluble on expression in E. coli” value is reported as “not soluble”. For “MATKLTPKQKAQLDELSMSEKIAILLIQVGEDTTGEILRHLDIDSITEISKQIVQLNGTDKQIGAAVLEEFFAIFQSNQYINTGGLEYARELLTRTLGSEEAKKVMDKLTKSLQTQKNFAYLGKIKPQQLADFIINEHPQTIALILAHMEAPNAAETLSYFPDEMKAEISIRMANLGEISPQVVKRVSTVLENKLESLTSYKIEVGGLRAVAEIFNRLGQKSAKTTLARIESVDNKLAGAIKEMMFTFEDIVKLDNFAIREILKVADKKDLSLALKTSTKDLTDKFLNNMSSRAAEQFVEEMQYLGAVKIKDVDVAQRKIIEIVQSLQEKGVIQTGEEEDVIE”, the “soluble on expression in E. coli” value was “not soluble”. With “MGSDKIHHHHHHMKAPLVSIIIPVWNLWELTCACLDSIRAHTPGNAVEVIVVDNGSDDTTATALAPTGEGLFGARFRRIRLETNRGFAVACNLGAAKAQGTYLLLLNNDTVLSPGWLPPLLREFDDEPRTGAAGPLLVYPDSGRVQHCGIAFAPTLQTEHLYANFPATHPAVRARRTLQAITGAAMLLPTALFRQCGGFHEGYKNGCEDLELCCRIREQGLRLAVVPESLVAHHESRTPGRKEHDAANATLLNRRCSGCFGPDLHRHALRDGFAIALTPWLDTYLTLPPGREAALTREHITDFDPGRCWETLQGEPLWHGGYEMLCSILDEAGRHAESAGVRLLQAGFFPTLPGFRQLARSAALSGNDELARQAAEKMQHIGGILEDPEPLVTRARGLVRWARRAGEPAVEALYTGWLTDIGLSADD” the “soluble on expression in E. coli” value was “not soluble”. With “MSRPPSRPRMMCARVLLLLSVTGLVLACETGPSSGDYEQAVMQDRVQRDMQMREKESVLPPGRREAFRGLNFYEVDPAYRYTVPLRRFETPDTVMIPESTGDLRPQQRIGEVTVPLPEGPEELVVFRGEGDTPRGRLWIPFADSTNRHATYKGGRYVDLTSTDSDSVVVDFNRAYNPTCAYNPDFACPLPPPENRIAVPVAAGEKRPTFGGLEHHHHHH” the “soluble on expression in E. coli” value was “not soluble”. In the case of “MGSDKIHHHHHHMTEDEAITQLRRFVAALESGSRRNANDAAFALLAGNPPLGDRWQSIAHVMQTNGEYSAAHLAMARFAAHRADPNARFAQAAMLAQTGQLEEAWKVMGSVPFGVPSVSGHHYIRGTIAVNLGHIEDAEKHLLAAIEAEPALGQAMLSLAAARKRKAGDPIGDRILSAEPRMEGAPPLERAHFHYAAGRVHFDRREPDEAFRHFSAGAELVRGWRSYDAAADARDAAECRQGFDRDFVDKINNLVTLDTSQPIFVTGLPRSGTTLVEQILVSHSAVSGGEELGRMGVVRRDLTSLSAKGLSDYLQAGGNADDLAALYLHLGQERFGKEGRFVDKALNTSRFTGLIAALLPHAPIVWLRRDPADCAFSAYRTYFINGLDWSWNLEDIATHFALEDQLFHHWSRMFPDRILAVDYQQLVQEPQAQIRRILAHCNLEEEPQVFRPHETQRVVSTASVMQVREPINTGAVGAAGAYRLHLAPFVDRYEALSAAT”, the “soluble on expression in E. coli” value is reported as “not soluble”. With “MSLRIEYNYRYYLTENEYKQYHIQLKGFIKKYVATKLADVGEVIHFAQAQQRQGRYVSLYLSYEAAKYFNHVMCTHSLAKDDIYAVAYSFEKAESINSTYEHQTSYVSKHHFSFVESSEVMMTNIKRVQQAIVEGETYQVNYTARLTDNIYYPISTLYERLTQFSNGNYTALLQTDEIQVASISPELFFQKGQFNNVDNVIISKPMKGTMPRGKTEAEDQQYYKTLQTSSKDRAENVMIVDLLRNDIGRISQSGSIKVYKLFFIEAYKTVFQMTSMVSGTLKTNTDLTQILTSLFPCGSITGAPKLNTMKYIKQFESSPRGIYCGAIGLLLPTEDDKMIFNIPIRTIEYKYGQAIYGVGAGITIDSKPKDEVNEFYAKTKILEMLEGHHHHHH” the “soluble on expression in E. coli” value was “soluble”. For “MKYCKFCCKAVTGVKLIHVPKCAIKRKLWEQSLGCSLGENSQICDTHFNDSQWKAAPAKGQTFKRRRLNADAVPSKV”, the “soluble on expression in E. coli” value was “soluble”.

— the DeepSol protein solubility set
